# Measurements taken from publication PMC6606567, “Molecular tuning of farnesoid X receptor partial agonism” (Nature Communications, 2019).
# Assays:
# [1] = target: farnesoid X receptor ligand binding domain (FXR-LBD; isoform 4; amino acids 244-472) (human); assay: NMR titration; 1H/13C-HSQC of Leu-labeled NCoR and NCoA peptides (50 µM) with FXR-LBD (50 µM) and partial agonist 1 (250 µM); 298 K, 50 mM Tris pH 8.3, 500 mM NaCl, 2 mM TCEP; populations from signal intensities
# [2] = target: farnesoid X receptor ligand binding domain (FXR-LBD; isoform 4; amino acids 244-472) (human); assay: NMR titration; HSQC of the quaternary mixture of FXR-LBD, antagonist guggulsterone, labeled co-activator (NCoA) and co-repressor (NCoR) peptides; protein:peptide:ligand 50:50:250 µM, 298 K
# [3] = target: farnesoid X receptor ligand binding domain (FXR-LBD; isoform 4; amino acids 244-472) (human); assay: NMR titration; 1H/13C-HSQC of Leu-labeled NCoR and NCoA peptides (50 µM) with FXR-LBD (50 µM) and GW4064 (250 µM); 298 K, 50 mM Tris pH 8.3, 500 mM NaCl, 2 mM TCEP; populations from signal intensities
# [4] = target: farnesoid X receptor ligand binding domain (FXR-LBD; isoform 4; amino acids 244-472) (human); assay: NMR titration; 1H/13C-HSQC of Leu-labeled NCoR and NCoA peptides (50 µM) with FXR-LBD (50 µM) and ivermectin (250 µM); 298 K, 50 mM Tris pH 8.3, 500 mM NaCl, 2 mM TCEP; populations from signal intensities
# [5] = target: farnesoid X receptor ligand binding domain (FXR-LBD; isoform 4; amino acids 244-472) (human); assay: NMR titration; 1H/13C-HSQC of Leu-labeled NCoR and NCoA peptides (50 µM) with FXR-LBD (50 µM) and fexaramine (250 µM); 298 K, 50 mM Tris pH 8.3, 500 mM NaCl, 2 mM TCEP; populations from signal intensities
# [6] = target: farnesoid X receptor ligand binding domain (FXR-LBD; isoform 4; amino acids 244-472) (human); assay: NMR titration; 1H/13C-HSQC of Leu-labeled NCoR and NCoA peptides (50 µM) with FXR-LBD (50 µM) and CDCA (250 µM); 298 K, 50 mM Tris pH 8.3, 500 mM NaCl, 2 mM TCEP; populations from signal intensities
# [7] = target: the molecule itself; assay: crystal structure; FXR244-472 (75 µM) incubated with 150 µM partial agonist 1 (DM175), concentrated to 375 µM, then 750 µM NCoA-2 740-752 peptide; hanging drop, 4 °C, 300 mM MgCl2, 100 mM Bis-Tris pH 7, 15-20% PEG 3350, micro seeding
molecule,measurement,setting,value
Nuclear receptor co-activator 2 peptide (NCoA-2 740-752),free co-repressor/free co-activator ratio (part of free co-activator),[1],70
same,free co-repressor/free co-activator ratio (part of free co-activator),[2],85
same,free co-repressor/free co-activator ratio (part of free co-activator),[3],14
same,free co-repressor/free co-activator ratio (part of free co-activator),[4],75
same,free co-repressor/free co-activator ratio (part of free co-activator),[5],23
same,free co-repressor/free co-activator ratio (part of free co-activator),[6],13
"nuclear receptor co-repressor 1 peptide (NCoR-1, residues 2256-2278)",free co-repressor/free co-activator ratio (part of free co-repressor),[1],30
same,free co-repressor/free co-activator ratio (part of free co-repressor),[2],15
same,free co-repressor/free co-activator ratio (part of free co-repressor),[3],86
same,free co-repressor/free co-activator ratio (part of free co-repressor),[4],25
same,free co-repressor/free co-activator ratio (part of free co-repressor),[5],77
same,free co-repressor/free co-activator ratio (part of free co-repressor),[6],87
"farnesoid X receptor ligand binding domain (FXR-LBD; isoform 4; amino acids 244-472) (domain or fragment, human, numbers count on: isoform 4; also called FXR244-472; NR1H4; source: E. coli BL21(DE3) gold, purified (NiNTA, Tev cleavage, Superdex 200); not shown: His6, N-terminal, cleaved) ELTPDQQTLLHFIMDSYNKQRMPQEITNKILKEEFSAEENFLILTEMATNHVQVLVEFTKKLPGFQTLDHEDQIALLKGSAVEAMFLRSAEIFNKKLPSGHSDLLEERIRNSGISDEYITPMFSFYKSIGELKMTQEEYALLTAIVILSPDRQYIKDREAVEKLQEPLLDVLQKLCKIHQPENPQHFACLLGRLTELRTFNHHHAEMLMSWRVNDHKFTPLLCEIWDVQ",binding result,[7],binds
